Literature values as cited in publication PMC12990809.

How the values were obtained:
Test in all cases: pulldown
Conditions in all cases: 20 nM protein, 1.5 uM RNA pool; 20 mM HEPES pH 7.8, 70 mM KCl, 10 mM NaCl, 10% glycerol, 2 mM DTT, 0.1 ug/uL BSA; 30 min, 4 C (protocol of this paper; not …); cited from earlier work
[1] = molecular target: T1, cpo (Drosophila melanogaster) (UniProt Q01617)
T1 sequence: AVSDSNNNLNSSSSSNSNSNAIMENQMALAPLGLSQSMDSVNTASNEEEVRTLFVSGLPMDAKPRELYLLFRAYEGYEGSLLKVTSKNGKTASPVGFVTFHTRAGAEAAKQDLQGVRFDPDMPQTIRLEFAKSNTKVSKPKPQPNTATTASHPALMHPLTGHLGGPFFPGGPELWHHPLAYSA

[2] = molecular target: T2, Rbp1-like (Drosophila melanogaster) (UniProt M9MS48)
T2 sequence: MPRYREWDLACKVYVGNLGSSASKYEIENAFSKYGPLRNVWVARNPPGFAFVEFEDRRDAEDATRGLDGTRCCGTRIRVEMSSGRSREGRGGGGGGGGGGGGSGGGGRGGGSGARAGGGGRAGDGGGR

[3] = molecular target: T3, Syp G309D (Drosophila melanogaster) (UniProt Q7KSA0)
T3 sequence: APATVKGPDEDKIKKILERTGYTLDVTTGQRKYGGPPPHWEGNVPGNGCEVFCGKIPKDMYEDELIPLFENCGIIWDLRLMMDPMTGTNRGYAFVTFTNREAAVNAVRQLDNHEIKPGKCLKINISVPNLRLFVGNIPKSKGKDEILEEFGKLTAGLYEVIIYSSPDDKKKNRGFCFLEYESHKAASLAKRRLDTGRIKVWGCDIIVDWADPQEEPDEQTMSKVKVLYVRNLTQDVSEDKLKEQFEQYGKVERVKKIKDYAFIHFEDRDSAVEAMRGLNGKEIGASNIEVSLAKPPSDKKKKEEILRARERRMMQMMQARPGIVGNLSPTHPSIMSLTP

[4] = molecular target: Rbp9 (Drosophila melanogaster) (UniProt A2RVE5)
Chain of Rbp9 (Drosophila melanogaster) (A2RVE5 entry or part of it): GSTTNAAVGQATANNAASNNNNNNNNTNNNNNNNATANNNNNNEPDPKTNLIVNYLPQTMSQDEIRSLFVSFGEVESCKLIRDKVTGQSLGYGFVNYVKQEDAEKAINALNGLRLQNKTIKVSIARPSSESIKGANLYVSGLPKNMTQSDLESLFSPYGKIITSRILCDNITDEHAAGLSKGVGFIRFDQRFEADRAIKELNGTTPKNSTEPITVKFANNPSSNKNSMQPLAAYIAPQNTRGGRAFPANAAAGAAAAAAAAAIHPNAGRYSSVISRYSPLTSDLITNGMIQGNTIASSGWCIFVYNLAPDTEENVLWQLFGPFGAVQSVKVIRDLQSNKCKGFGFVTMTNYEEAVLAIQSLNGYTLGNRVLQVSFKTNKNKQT

Q: For AGCAC [RNAcompete motif RNCMPT00133], which binding signal (z-score (mean of top ten 7-mers)) [1] is on record?
A: 12.9

Q: With CAUCAUCG [RNAcompete motif RNCMPT00127] as the substance, how does the binding signal (z-score (mean of top ten 7-mers)) [2] read?
A: 10.7

Q: For AAAUU [RNAcompete motif RNCMPT00131], which binding signal (z-score (mean of top ten 7-mers)) [3] is on record?
A: 13.5

Q: For UUUNGUU [RNAcompete motif RNCMPT00132], which binding signal (z-score (mean of top ten 7-mers)) [4] is on record?
A: 15.5
